Paper PMC12416549 (2024)
Positions count from the first letter of the chain named. In names and notes the source's numbering stands.

T1: TNFR1 (Homo sapiens, UniProt P19438)
T1 chain: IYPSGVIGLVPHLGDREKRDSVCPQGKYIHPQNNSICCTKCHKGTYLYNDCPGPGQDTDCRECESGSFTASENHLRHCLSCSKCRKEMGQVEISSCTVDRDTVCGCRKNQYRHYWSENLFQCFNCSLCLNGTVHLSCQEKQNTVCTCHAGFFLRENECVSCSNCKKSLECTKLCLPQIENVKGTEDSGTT

B1: D40S (designed binder)
chain: MTLQELLREEALRRAEAEAFRYALELLAEKFPEQKEYLLSLAEEIESQIRSLSGVDVEDVRKFLDKEWAWVKELLAEHPAELAEVEAARAARLAELRAEVEAKVAA
B2: L12D (designed binder)
chain: B1 chain with L12D, S40D
B3: V55I (designed binder)
chain: B1 chain with S40D, V55I
B4: V55N (designed binder)
chain: B1 chain with S40D, V55N
B5: L96Q (designed binder)
chain: B1 chain with S40D, L96Q
B6: L74M (designed binder)
chain: B1 chain with S40D, L74M
B7: L39C (designed binder)
chain: B1 chain with L39C, S40D
B8: F20Y (designed binder)
chain: B1 chain with F20Y, S40D
B9: E99W (designed binder)
chain: B1 chain with S40D, E99W
B10: H78C (designed binder)
chain: B1 chain with S40D, H78C
B11: A28E (designed binder)
chain: B1 chain with A28E, S40D
B12: L52Q (designed binder)
chain: B1 chain with S40D, L52Q
B13: L24A (designed binder)
chain: B1 chain with L24A, S40D
B14: Q34L (designed binder)
chain: B1 chain with Q34L, S40D
B15: A105N (designed binder)
chain: B1 chain with S40D, A105N
B16: V55E (designed binder)
chain: B1 chain with S40D, V55E
B17: E18C (designed binder)
chain: B1 chain with E18C, S40D
B18: L38Q (designed binder)
chain: B1 chain with L38Q, S40D
B19: V85Y (designed binder)
chain: B1 chain with S40D, V85Y
B20: A98L (designed binder)
chain: B1 chain with S40D, A98L
B21: E25Y (designed binder)
chain: B1 chain with E25Y, S40D
B22: K72D (designed binder)
chain: B1 chain with S40D, K72D
B23: E46S (designed binder)
chain: B1 chain with S40D, E46S
B24: R92Y (designed binder)
chain: B1 chain with S40D, R92Y
B25: L64T (designed binder)
chain: B1 chain with S40D, L64T
B26: V71T (designed binder)
chain: B1 chain with S40D, V71T
B27: P32V (designed binder)
chain: B1 chain with P32V, S40D
B28: Q48K (designed binder)
chain: B1 chain with S40D, Q48K
B29: W68S (designed binder)
chain: B1 chain with S40D, W68S
B30: A11I (designed binder)
chain: B1 chain with A11I, S40D
B31: W70Y (designed binder)
chain: B1 chain with S40D, W70Y
B32: R13S (designed binder)
chain: B1 chain with R13S, S40D
B33: L12G (designed binder)
chain: B1 chain with L12G, S40D
B34: L64F (designed binder)
chain: B1 chain with S40D, L64F
B35: A88D (designed binder)
chain: B1 chain with S40D, A88D
B36: V85Q (designed binder)
chain: B1 chain with S40D, V85Q
B37: R13K (designed binder)
chain: B1 chain with R13K, S40D
B38: K30W (designed binder)
chain: B1 chain with K30W, S40D
B39: G54R (designed binder)
chain: B1 chain with S40D, G54R
B40: A23R (designed binder)
chain: B1 chain with A23R, S40D
B41: Q34T (designed binder)
chain: B1 chain with Q34T, S40D
B42: E9R (designed binder)
chain: B1 chain with E9R, S40D
B43: E9F (designed binder)
chain: B1 chain with E9F, S40D
B44: R21C (designed binder)
chain: B1 chain with R21C, S40D
B45: L7A (designed binder)
chain: B1 chain with L7A, S40D
B46: E5W (designed binder)
chain: B1 chain with E5W, S40D
B47: L38C (designed binder)
chain: B1 chain with L38C, S40D
B48: K62P (designed binder)
chain: B1 chain with S40D, K62P
B49: P32N (designed binder)
chain: B1 chain with P32N, S40D
B50: E44V (designed binder)
chain: B1 chain with S40D, E44V
B51: L64W (designed binder)
chain: B1 chain with S40D, L64W
B52: K72W (designed binder)
chain: B1 chain with S40D, K72W
B53: R92D (designed binder)
chain: B1 chain with S40D, R92D
B54: F31A (designed binder)
chain: B1 chain with F31A, S40D
B55: E58R (designed binder)
chain: B1 chain with S40D, E58R
B56: D40Q (designed binder)
chain: B1 chain with S40Q
B57: F31Q (designed binder)
chain: B1 chain with F31Q, S40D
B58: L96S (designed binder)
chain: B1 chain with S40D, L96S
B59: E84P (designed binder)
chain: B1 chain with S40D, E84P

Target: T1, TNFR1
Experiment: yeast display SC50

apparent Kd (screen) | Binder
0.539 nM | B1
1.05 nM | B2
0.539 nM | B3
0.956 nM | B4
0.539 nM | B5
0.956 nM | B6
1.16 nM | B7
2.05 nM | B8
0.593 nM | B9
0.593 nM | B10
5.84 nM | B11
0.539 nM | B12
1.54 nM | B13
0.539 nM | B14
0.593 nM | B15
15.2 nM | B16
0.79 nM | B17
16.7 nM | B18
0.869 nM | B19
0.539 nM | B20

apparent Kd (screen) | Binder
0.653 nM | B21
1.05 nM | B22
0.49 nM | B23
0.49 nM | B24
12.5 nM | B25
1.27 nM | B26
0.593 nM | B27
7.07 nM | B28
2.48 nM | B29
0.368 nM | B30
1.86 nM | B31
0.277 nM | B32
2.25 nM | B33
0.869 nM | B34
0.593 nM | B35
0.869 nM | B36
0.869 nM | B37
0.653 nM | B38
3.3 nM | B39
0.539 nM | B40

apparent Kd (screen) | Binder
0.539 nM | B41
1.4 nM | B42
0.49 nM | B43
0.718 nM | B44
11.4 nM | B45
0.539 nM | B46
4.39 nM | B47
3 nM | B48
0.653 nM | B49
6.43 nM | B50
26.9 nM | B51
0.79 nM | B52
0.718 nM | B53
0.49 nM | B54
0.869 nM | B55
0.446 nM | B56
0.653 nM | B57
0.539 nM | B58
0.49 nM | B59
